From patent US7521047 (GPC BIOTECH, dated 2009)

B1: L243 (antibody, V domains shown)
VH: QIQLVQSGPELKKPGETVKISCKASGFTFTNYGMNWVKQAPGKGLKWMGWINTYTREPTYADDFKGRFAFSLETSASTAYLQINNLKNEDTAKYFCARDITAVVPTGFDYWGQGTTLTVSS
VL: DIQMTQSPASLSVSVGETVTITCRASENIYSNLAWYRQKQGKSPQLLVFAASNLADGVPSRFSGSGSGTQYSLKINSLQSEDFGDYYCQHFWTTPWAFGGGTNLEIK
B2: MS-GPC-8-1 Fab (Fab, V domains shown)
VH: QVQLKESGPALVKPTQTLTLTCTFSGFSLSTSGVGVGWIRQPPGKALEWLALIDWDDDKYYSTSLKTRLTISKDTSKNQVVLTMTNMDPVDTATYYCARSPRYRGAFDYWGQGTLVTVSS
VL: DIVLTQPPSVSGAPGQRVTISCSGSSSNIGSNYVSWYQQLPGTAPKLLIYDNNQRPSGVPDRFSGSKSGTSASLAITGLQSEDEADYYCQSYDFSHYVFGGGTKLTVLG
notes: Fab: VH-CH1 with FLAG tag and STREP tag II, VL-CL; VH residue 1 is Q in Fab
B3: MS-GPC-8-6-2 IgG (antibody, V domains shown)
VH: QVQLKESGPALVKPTQTLTLTCTFSGFSLSTSGVGVGWIRQPPGKALEWLALIDWDDDKYYSTSLKTRLTISKDTSKNQVVLTMTNMDPVDTATYYCARSPRYRGAFDYWGQGTLVTVSS
VL: DIVLTQPPSVSGAPGQRVTISCSGSESNIGSNYVHWYQQLPGTAPKLLIYDNNQRPSGVPDRFSGSKSGTSASLAITGLQSEDEADYYCQSYDYDHYVFGGGTKLTVLG
B4: MS-GPC-8-6 IgG (antibody, V domains shown)
VH: QVQLKESGPALVKPTQTLTLTCTFSGFSLSTSGVGVGWIRQPPGKALEWLALIDWDDDKYYSTSLKTRLTISKDTSKNQVVLTMTNMDPVDTATYYCARSPRYRGAFDYWGQGTLVTVSS
VL: DIVLTQPPSVSGAPGQRVTISCSGSSSNIGSNYVSWYQQLPGTAPKLLIYDNNQRPSGVPDRFSGSKSGTSASLAITGLQSEDEADYYCQSYDYDHYVFGGGTKLTVLG
B5: MS-GPC-8-10-57 Fab (Fab, V domains shown)
VH: QVQLKESGPALVKPTQTLTLTCTFSGFSLSTSGVGVGWIRQPPGKALEWLALIDWDDDKYYSTSLKTRLTISKDTSKNQVVLTMTNMDPVDTATYYCARSPRYRGAFDYWGQGTLVTVSS
VL: DIVLTQPPSVSGAPGQRVTISCSGSESNIGNNYVQWYQQLPGTAPKLLIYDNNQRPSGVPDRFSGSKSGTSASLAITGLQSEDEADYYCQSYDLIRHVFGGGTKLTVLG
notes: Fab: VH-CH1 with FLAG tag and STREP tag II, VL-CL; VH residue 1 is Q in Fab; also called 1C7277
B6: MS-GPC-8-27-7 Fab (Fab, V domains shown)
VH: QVQLKESGPALVKPTQTLTLTCTFSGFSLSTSGVGVGWIRQPPGKALEWLALIDWDDDKYYSTSLKTRLTISKDTSKNQVVLTMTNMDPVDTATYYCARSPRYRGAFDYWGQGTLVTVSS
VL: DIVLTQPPSVSGAPGQRVTISCSGSESNIGNNYVGWYQQLPGTAPKLLIYDNNQRPSGVPDRFSGSKSGTSASLAITGLQSEDEADYYCQSYDMNVHVFGGGTKLTVLG
notes: as for B2
B7: MS-GPC-8-27 Fab (Fab, V domains shown)
VH: QVQLKESGPALVKPTQTLTLTCTFSGFSLSTSGVGVGWIRQPPGKALEWLALIDWDDDKYYSTSLKTRLTISKDTSKNQVVLTMTNMDPVDTATYYCARSPRYRGAFDYWGQGTLVTVSS
VL: DIVLTQPPSVSGAPGQRVTISCSGSSSNIGSNYVSWYQQLPGTAPKLLIYDNNQRPSGVPDRFSGSKSGTSASLAITGLQSEDEADYYCQSYDMNVHVFGGGTKLTVLG
notes: as for B2
B8: MS-GPC-8-6-13 Fab (Fab, V domains shown)
VH: QVQLKESGPALVKPTQTLTLTCTFSGFSLSTSGVGVGWIRQPPGKALEWLALIDWDDDKYYSTSLKTRLTISKDTSKNQVVLTMTNMDPVDTATYYCARSPRYRGAFDYWGQGTLVTVSS
VL: DIVLTQPPSVSGAPGQRVTISCSGSESNIGANYVTWYQQLPGTAPKLLIYDNNQRPSGVPDRFSGSKSGTSASLAITGLQSEDEADYYCQSYDYDHYVFGGGTKLTVLG
notes: Fab: VH-CH1 with FLAG tag and STREP tag II, VL-CL; VH residue 1 is Q in Fab; also called 305D3
B9: MS-GPC-8-6-2 Fab (Fab, V domains shown)
VH: QVQLKESGPALVKPTQTLTLTCTFSGFSLSTSGVGVGWIRQPPGKALEWLALIDWDDDKYYSTSLKTRLTISKDTSKNQVVLTMTNMDPVDTATYYCARSPRYRGAFDYWGQGTLVTVSS
VL: DIVLTQPPSVSGAPGQRVTISCSGSESNIGSNYVHWYQQLPGTAPKLLIYDNNQRPSGVPDRFSGSKSGTSASLAITGLQSEDEADYYCQSYDYDHYVFGGGTKLTVLG
notes: as for B2
B10: MS-GPC-8-9 Fab (Fab, V domains shown)
VH: QVQLKESGPALVKPTQTLTLTCTFSGFSLSTSGVGVGWIRQPPGKALEWLALIDWDDDKYYSTSLKTRLTISKDTSKNQVVLTMTNMDPVDTATYYCARSPRYRGAFDYWGQGTLVTVSS
VL: DIVLTQPPSVSGAPGQRVTISCSGSSSNIGSNYVSWYQQLPGTAPKLLIYDNNQRPSGVPDRFSGSKSGTSASLAITGLQSEDEADYYCQSYDIQLHVFGGGTKLTVLG
notes: as for B2
B11: MS-GPC-8-27-10 Fab (Fab, V domains shown)
VH: QVQLKESGPALVKPTQTLTLTCTFSGFSLSTSGVGVGWIRQPPGKALEWLALIDWDDDKYYSTSLKTRLTISKDTSKNQVVLTMTNMDPVDTATYYCARSPRYRGAFDYWGQGTLVTVSS
VL: DIVLTQPPSVSGAPGQRVTISCSGSESNIGANYVNWYQQLPGTAPKLLIYDNNQRPSGVPDRFSGSKSGTSASLAITGLQSEDEADYYCQSYDMNVHVFGGGTKLTVLG
notes: as for B2
B12: MS-GPC-8-6-19 Fab (Fab, V domains shown)
VH: QVQLKESGPALVKPTQTLTLTCTFSGFSLSTSGVGVGWIRQPPGKALEWLALIDWDDDKYYSTSLKTRLTISKDTSKNQVVLTMTNMDPVDTATYYCARSPRYRGAFDYWGQGTLVTVSS
VL: DIVLTQPPSVSGAPGQRVTISCSGSESNIGSNYVAWYQQLPGTAPKLLIYDNNQRPSGVPDRFSGSKSGTSASLAITGLQSEDEADYYCQSYDYDHYVFGGGTKLTVLG
notes: as for B2
B13: MS-GPC-8-18 Fab (Fab, V domains shown)
VH: QVQLKESGPALVKPTQTLTLTCTFSGFSLSTSGVGVGWIRQPPGKALEWLALIDWDDDKYYSTSLKTRLTISKDTSKNQVVLTMTNMDPVDTATYYCARSPRYRGAFDYWGQGTLVTVSS
VL: DIVLTQPPSVSGAPGQRVTISCSGSSSNIGSNYVSWYQQLPGTAPKLLIYDNNQRPSGVPDRFSGSKSGTSASLAITGLQSEDEADYYCQSYDFSIYVFGGGTKLTVLG
notes: as for B2
B14: MS-GPC-8-10 Fab (Fab, V domains shown)
VH: QVQLKESGPALVKPTQTLTLTCTFSGFSLSTSGVGVGWIRQPPGKALEWLALIDWDDDKYYSTSLKTRLTISKDTSKNQVVLTMTNMDPVDTATYYCARSPRYRGAFDYWGQGTLVTVSS
VL: DIVLTQPPSVSGAPGQRVTISCSGSSSNIGSNYVSWYQQLPGTAPKLLIYDNNQRPSGVPDRFSGSKSGTSASLAITGLQSEDEADYYCQSYDLIRHVFGGGTKLTVLG
notes: as for B2
B15: MS-GPC-8-6-45 Fab (Fab, V domains shown)
VH: QVQLKESGPALVKPTQTLTLTCTFSGFSLSTSGVGVGWIRQPPGKALEWLALIDWDDDKYYSTSLKTRLTISKDTSKNQVVLTMTNMDPVDTATYYCARSPRYRGAFDYWGQGTLVTVSS
VL: DIVLTQPPSVSGAPGQRVTISCSGSEPNIGSNYVFWYQQLPGTAPKLLIYDNNQRPSGVPDRFSGSKSGTSASLAITGLQSEDEADYYCQSYDYDHYVFGGGTKLTVLG
notes: as for B2

Experiments:
[1] = molecular target: T1, HLA-DR (DRA*0101/DRB1*0401) on PRIESS cells (human, UniProt P01903 26-254; P01911 30-266); assay: cell-based or functional assay
T1 MHC II alpha: not shown
T1 MHC II beta: not shown

[2] = molecular target: T2, human MHC class II DR protein (DRA*0101/DRB1*0401), purified from PRIESS cells (human, UniProt P01903 26-254; P01911 30-266, limits assumed); assay: SPR (BIAcore), chip density 4000 RU MHCII
T2 construct: mature; also called HLA-DR protein; MHCII
T2 MHC II alpha: not shown
T2 MHC II beta: not shown

[3] = molecular target: T2, human MHC class II DR protein …; assay: SPR (BIAcore), MHCII on CM5 chip
[4] = molecular target: chimeric 0401-IE class II molecule on cells of transgenic mice (human/murine chimera); assay: cell-based or functional assay
lysozyme = molecular target: T3, lysozyme; assay: ELISA, coated antigen, Fab 100 ng/well, read at 370 nm
T3 construct: negative control antigen
Method: (§1) After washing in PBS the anti-human IgG F(ab')_2-peroxidase-conjugate at a 1:10,000 dilution in TBS (supplemented with 5% w/v non-fat drymilk/0.05% v/v Tween 20) was added to each well for 1 h. Final washes were carried out in PBS followed the addition the substrate POD (Roche).

[5] = molecular target: T2, human MHC class II DR protein …; assay: as above
Method: as §1

BSA = molecular target: T4, BSA (bovine, UniProt P02769 25-607); assay: as above
T4 construct: negative control antigen; also called bovine serum albumine
Method: as §1

[6] = molecular target: T2, human MHC class II DR protein …; assay: SPR (BIAcore), MHCII on CM5 chip

T4 sequence (P02769 25-607 limits assumed): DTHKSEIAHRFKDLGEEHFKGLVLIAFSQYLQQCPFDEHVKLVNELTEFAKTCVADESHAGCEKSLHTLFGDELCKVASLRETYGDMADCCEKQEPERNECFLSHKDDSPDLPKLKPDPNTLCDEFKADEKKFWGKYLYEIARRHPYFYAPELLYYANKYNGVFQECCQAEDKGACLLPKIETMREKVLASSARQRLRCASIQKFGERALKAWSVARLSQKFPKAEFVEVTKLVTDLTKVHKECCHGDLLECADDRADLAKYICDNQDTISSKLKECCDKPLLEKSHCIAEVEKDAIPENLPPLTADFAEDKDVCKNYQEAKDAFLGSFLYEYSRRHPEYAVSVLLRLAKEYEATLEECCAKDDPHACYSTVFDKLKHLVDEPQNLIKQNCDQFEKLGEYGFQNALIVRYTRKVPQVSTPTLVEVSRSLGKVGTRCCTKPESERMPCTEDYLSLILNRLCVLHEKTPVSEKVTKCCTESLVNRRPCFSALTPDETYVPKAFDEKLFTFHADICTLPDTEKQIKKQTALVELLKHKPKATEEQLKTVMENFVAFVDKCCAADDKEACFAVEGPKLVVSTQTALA
T3 sequence (P00698 19-147): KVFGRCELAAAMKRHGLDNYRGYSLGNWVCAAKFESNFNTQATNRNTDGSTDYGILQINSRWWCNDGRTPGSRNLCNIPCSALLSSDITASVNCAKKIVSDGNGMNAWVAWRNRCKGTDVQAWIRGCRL

| Binder | Kd [3] [nM] | koff [3] [s⁻¹] | kon [3] [M⁻¹ s⁻¹] | IC50 of inhibition of IL-2 secretion from T-Hyb 1 cells [4] | Maximum inhibition(%) of IL-2 secretion [4] [%] | Kd [6] [nM] | koff [6] [s⁻¹] | kon [6] [M⁻¹ s⁻¹] | further results |
| --- | --- | --- | --- | --- | --- | --- | --- | --- | --- |
| B1 |  |  |  |  |  |  |  |  | EC50 of cell killing, mIgG [1]: 47 nM |
| B2 | 108 | 0.0209 | 193000 |  |  |  |  |  | Kd [2]: 108 nM; koff [2]: 0.0209 s⁻¹; kon [2]: 193000 M⁻¹ s⁻¹ |
| B3 |  |  |  | 3.6 nM | 100 |  |  |  |  |
| B4 |  |  |  | 6.7 nM | 100 |  |  |  |  |
| B5 |  |  |  | 2.9 nM (half the concentration of the Fab) | 100 |  |  |  | ELISA signal (lysozyme): 0.014; ELISA signal [5]: 1.26; ELISA signal (BSA): 0.003; binding result (BSA): no binding (tested: 100 ng/well) |
| B6 | 3.3 | 0.00057 | 174000 | 5.9 nM (half the concentration of the Fab) | 100 | 3.3 | 0.00057 | 170000 | ELISA signal [5]: 1.55 |
| B7 |  | 0.0066 |  |  |  |  |  |  |  |
| B8 |  |  |  | 2.1 nM (half the concentration of the Fab) | 100 | 3 | 0.00055 | 190000 | ELISA signal [5]: 1.47 |
| B9 | 7.61 | 0.00094 | 123000 | 4.7 nM (half the concentration of the Fab) | 100 | 7.6 | 0.00094 | 120000 | EC50 of cell killing, cross-linked Fab, bivalent agent [1]: 8 nM |
| B10 | 90.1 | 0.0166 | 185000 |  |  |  |  |  | Kd [2]: 90.1 nM; koff [2]: 0.0166 s⁻¹; kon [2]: 185000 M⁻¹ s⁻¹ |
| B11 | 3.01 | 0.00053 | 176000 | 7.3 nM (half the concentration of the Fab) | 100 | 3 | 0.00053 | 180000 | ELISA signal [5]: 1.49 |
| B12 | 8.74 | 0.00096 | 110000 | 5.3 nM (half the concentration of the Fab) | 100 | 9 | 0.001 | 110000 |  |
| B13 | 78.3 | 0.0083 | 106000 |  |  |  |  |  | Kd [2]: 78.3 nM; koff [2]: 0.0083 s⁻¹; kon [2]: 106000 M⁻¹ s⁻¹ |
| B14 |  | 0.007 |  |  |  |  |  |  |  |
| B15 | 8.63 | 0.00103 | 120000 |  |  | 8.6 | 0.00103 | 120000 |  |
